Test [1] concerns the target T1, monkey TIM-3 protein with hFc tag (cTIM-3-hFc protein) (monkey; human).
T1 construct: Made in HEK293 cells; also called monkey TIM-3 extracellular domain protein; not shown: human IgG Fc fragment (hFc) of the pCpC vector
T1 chain: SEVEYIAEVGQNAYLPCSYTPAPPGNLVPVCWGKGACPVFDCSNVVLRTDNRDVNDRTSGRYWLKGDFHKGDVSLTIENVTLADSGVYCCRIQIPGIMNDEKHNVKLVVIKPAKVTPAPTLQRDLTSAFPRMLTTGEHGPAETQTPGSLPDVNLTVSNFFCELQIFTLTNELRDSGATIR
The test can be described thus: ELISA, coated cTIM-3-hFc; antibody 0.0007 nM. The text has this:
(§1) The amino acid sequence 22-200 of the extracellular domain of the human TIM-3 protein described in the step of Example 1 (as shown in SEQ ID NO. 71 in the sequence listing) was cloned into a pCpC vector having a human IgG Fc fragment (hFc), and transfected into HEK293 cells. The cell culture medium was collected, and purified to obtain the human TIM-3 protein with hFc tag (herein referred to as hTIM-3-hFc protein). The amino acid sequence 22-201 of the extracellular domain of the monkey TIM-3 protein (as shown in SEQ ID NO. 72 in the sequence listing) was cloned into a pCpC vector having a human IgG Fc fragment (hFc), and transfected into HEK293 cells. The cell culture medium was collected, and purified to obtain the monkey TIM-3 protein with hFc tag (herein referred to as cTIM-3-hFc protein). […] The cell culture medium was collected, and purified to obtain the murine TIM-3 protein with hFc tag (herein referred to as mTIM-3-hFc protein). Purified human, monkey, and mouse TIM-3 extracellular domain proteins (hTIM-3-hFc, cTIM-3-hFc, and mTIM-3-hFc) were diluted with PBS to a final concentration of 1.0 μg/ml and then added to a 96-well ELISA plate with 100 μl per well. The plate was sealed with plastic film and incubated overnight at 4° C. The plate was washed 4 times with the plate washing solution (PBS+0.01% Tween20) on the next day, and added with the blocking solution (PBS+0.01% Tween20+1% BSA) and sealed at room temperature for 1-2 hours. The blocking solution was poured out. 50-100 μl of the antibody sample to be tested was added to each well. The plate was incubated at 37° C. for 1-2 hours, and washed 2-3 times with plate washing solution (PBS+0. 01% Tween20). HRP (horseradish peroxidase) labeled secondary antibody was added. The plate was incubated at 37° C. for 1-2 hours, and washed 2-3 times with plate washing solution (PBS+0. 01% Tween20). […] of TMB substrate was added to each well. After incubated at room temperature for 15-30 minutes, the plate was added with […] stop solution (1.0N HCl) to each well. An ELISA plate reader (TiterMax 384plus, Molecular Device) was used to read the A450 nm value.
(In general: An ELISA detects its analyte on a solid surface through an enzyme-linked reagent.)

Test [2] concerns the target T1, monkey TIM-3 protein with hFc tag …. As to the kind of experiment: ELISA, coated cTIM-3-hFc; antibody 0.0067 nM.
Description: as §1

Test [3] has as its target T2, human TIM-3 protein with hFc tag (hTIM-3-hFc protein) (human, UniProt Q8TDQ0 22-200).
T2 construct: also called immunogen 1; human TIM-3 extracellular domain protein; not shown: human IgG Fc fragment (hFc) of the pCpC vector
T2 sequence: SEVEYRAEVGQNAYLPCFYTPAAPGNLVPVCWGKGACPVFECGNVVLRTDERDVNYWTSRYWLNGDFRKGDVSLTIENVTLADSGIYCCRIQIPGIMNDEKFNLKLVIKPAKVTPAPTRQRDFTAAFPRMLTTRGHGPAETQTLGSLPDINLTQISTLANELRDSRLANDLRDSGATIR
The test can be described thus: ELISA, coated hTIM-3-hFc; antibody 66.667 nM.
Description: as §1

In test [4] the target is T1, monkey TIM-3 protein with hFc tag …. The test can be described thus: ELISA, coated cTIM-3-hFc; antibody 0.0667 nM.
Description: as §1

Test [5] has the same target. As to the kind of experiment: ELISA, coated cTIM-3-hFc; antibody 66.667 nM.
Description: as §1

In test [6] the target is T3, murine TIM-3 protein with hFc tag (mTIM-3-hFc protein) (mouse; human, UniProt Q8VIM0 29-191).
T3 construct: Made in HEK293 cells; also called mouse TIM-3 extracellular domain protein; not shown: human IgG Fc fragment (hFc) of the pCpC vector
T3 chain: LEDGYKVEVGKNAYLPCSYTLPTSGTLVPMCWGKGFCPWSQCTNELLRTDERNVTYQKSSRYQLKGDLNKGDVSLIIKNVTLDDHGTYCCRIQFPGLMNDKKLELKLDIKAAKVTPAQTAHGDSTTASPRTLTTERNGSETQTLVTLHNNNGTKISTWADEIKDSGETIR
The test can be described thus: ELISA, coated mTIM-3-hFc; antibody 66.667 nM.
Description: as §1

Test [7] deals with T4, human TIM-3 extracellular domain protein with hFc tag (hTIM-3-hFc) (human, UniProt Q8TDQ0 22-200).
T4 construct: not shown: human IgG Fc fragment (hFc) of the pCpC vector
T4 sequence: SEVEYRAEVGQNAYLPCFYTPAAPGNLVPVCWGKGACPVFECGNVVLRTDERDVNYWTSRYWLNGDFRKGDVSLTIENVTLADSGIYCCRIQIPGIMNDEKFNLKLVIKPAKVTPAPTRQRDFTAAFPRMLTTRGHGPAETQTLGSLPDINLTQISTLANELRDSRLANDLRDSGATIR
As to the kind of experiment: ELISA, coated human TIM-3 ECD protein, 0.0001 nM antibody.

Test [8] concerns the target T5, monkey TIM-3 extracellular domain protein with hFc tag (cTIM-3-hFc) (monkey).
T5 construct: not shown: human IgG Fc fragment (hFc) of the pCpC vector
T5 chain: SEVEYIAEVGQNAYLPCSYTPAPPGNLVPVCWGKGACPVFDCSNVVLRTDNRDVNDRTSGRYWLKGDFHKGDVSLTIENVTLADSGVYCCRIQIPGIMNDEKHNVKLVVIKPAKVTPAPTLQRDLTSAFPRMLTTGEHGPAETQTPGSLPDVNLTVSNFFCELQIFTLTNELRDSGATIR
As to the kind of experiment: ELISA, coated monkey TIM-3 ECD protein, 6.6667 nM antibody.

The target of test [9] is T6, monkey TIM-3 on CHOK1 stable cell line (CHOK1-cTIM-3) (monkey).
T6 chain: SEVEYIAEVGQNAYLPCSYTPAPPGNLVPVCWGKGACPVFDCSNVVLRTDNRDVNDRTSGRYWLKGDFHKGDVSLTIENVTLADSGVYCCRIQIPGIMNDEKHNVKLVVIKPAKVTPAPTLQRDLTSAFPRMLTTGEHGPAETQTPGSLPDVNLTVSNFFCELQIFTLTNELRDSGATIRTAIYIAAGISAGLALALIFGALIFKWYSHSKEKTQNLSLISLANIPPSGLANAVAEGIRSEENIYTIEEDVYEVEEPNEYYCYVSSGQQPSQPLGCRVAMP
As to the kind of experiment: FACS, CHOK1-cTIM-3 cells, 1.6 nM antibody. For orientation: Flow cytometry measures light scatter and fluorescence of single cells or particles in a stream.

Test [10] deals with T5, monkey TIM-3 extracellular domain …. As to the kind of experiment: ELISA, coated monkey TIM-3 ECD protein, 0 nM antibody.
Test [11] has the same target. The test can be described thus: ELISA, coated monkey TIM-3 ECD protein, 0.0067 nM antibody.

B1: 34B6D8 (TIM-3 antibody purified from hybridoma, chimeric antibody of Example 2) (antibody, V domains shown)
VH: EVQLVESGGGLVQPGGSLRLSCAASGFTFSTYWMTWVRQAPGKRLEWVANIKQGGGDKYYVDSVKGRFTISTDNAKNSLYLQMNSLRAEDTAVYYCARGSNWFDPWGQGTLVTVSS
VL: EIVMTQSPATLSMSPGERATLSCRASQSVYDNLAWYQQKPGQAPRLLIYGASTRATGIPARFSGSGSGTEFTLTISSLQSEDFALYYCQQYTHWPITFGQGTRLEIK
notes: From hybridoma of Harbour H2L2 transgenic mice: human variable regions, rat constant regions
Take B1: the OD450 was 0.61 in [1]; 0.78 in test [2]; 3.42 in test [3]; 1.92 in test [4]; 3.52 in test [5]; 1.1 in test [6].

B2: 57F4E5 fully human TIM-3 antibody (human IgG4, kappa) (antibody, V domains shown)
VH: EVQLVESGGGLVQPGGSLRLSCAASGFTFSSYWMSWVRQAPGKGLEWVANIKQDGSEKYYVDSVKGRFTISRDSAKNSLYLQMNSLRAEDTAMYFCARDSNFFDYWGQGTLVTVSS
VL: ETVMTQSPATLSVSPGERATLSCRASQSVSSNLAWYQRKPGQAPRLLIYFSSTRATGIPARFSGSGSGTEFTLTISSLQSEDFAVYYCQQYNNWPLTFGGGTKVEIK
For the molecule B2, the OD450 in [7] worked out at 0.08; in test [8] it was 3.29; in test [10] it was 0.16; in [11], 0.32. The same molecule had a Mean fluorescence intensity in test [9] of 207.

B3: 18D2H2 (TIM-3 antibody purified from hybridoma, chimeric antibody of Example 2) (antibody, V domains shown)
VH: EVQLVESGGDLVQPGGSLRLSCAASGFTFSTYWMTWVRQAPGRGLEWVANIKQDGSAKYYVDSVKGRFTLSRDDAKNSLYLQMNSLRAEDTAVYYCARGSNWFDYWGQGTLVTVSS
VL: ETVMTQSPATLSVSPGERATLSCRANQNVYSNLAWYQQKPGQAPRLLIYDASTRATGFPARFSGSGSGTEFTLTISSLQSEDFAVYYCQQYNNWPLTFGGGTKVEIK
notes: as for B1
For the molecule B3, the OD450 in [1] amounted to 0.54; in test [2], 0.62; in test [3] it was 2.93; in test [4], 0.74; in test [5], 3.44; in test [6], 0.85.

B4: 57F4E5 (TIM-3 antibody purified from hybridoma, chimeric antibody of Example 2) (antibody, V domains shown)
VH: EVQLVESGGGLVQPGGSLRLSCAASGFTFSSYWMSWVRQAPGKGLEWVANIKQDGSEKYYVDSVKGRFTISRDSAKNSLYLQMNSLRAEDTAMYFCARDSNFFDYWGQGTLVTVSS
VL: ETVMTQSPATLSVSPGERATLSCRASQSVSSNLAWYQRKPGQAPRLLIYFSSTRATGIPARFSGSGSGTEFTLTISSLQSEDFAVYYCQQYNNWPLTFGGGTKVEIK
notes: as for B1
For the molecule B4, the OD450 in test [1] came to 0.64; in test [2], 1.13; in test [3], 3.26; in [4], 2.68; in [5], 3.47; in test [6], 0.74.

B5: 134H3G6 (TIM-3 antibody purified from hybridoma, chimeric antibody of Example 2) (antibody, V domains shown)
VH: EVQLVESGGGLVQPGGSLRLSCAASGFTFSNSWMTWVRQAPGKGLEWVANIKQAGTEKYYVDSVKGRFTISRDNAKNSLYLQMNSLRAEDTAVYYCNSGSNYFDYWGQGTLVTVSS
VL: EIVMTQSPATLSVSPGERATLSCRARQNFYSNLAWYQQKPGQAPRLLIYGASTRATGIPARFSGSGSGTEFTLTISSLQSEDFAVYYCQQYNNWPLTFGGGTKVEIK
notes: as for B1
B5: the OD450 stood at 0.55 in test [1]; 0.56 in [2]; 3.15 in test [3]; 0.64 in test [4]; 3.43 in test [5]; 0.7 in test [6].

B6: 134H3G6 fully human TIM-3 antibody (human IgG4, kappa) (antibody, V domains shown)
VH: EVQLVESGGGLVQPGGSLRLSCAASGFTFSNSWMTWVRQAPGKGLEWVANIKQAGTEKYYVDSVKGRFTISRDNAKNSLYLQMNSLRAEDTAVYYCNSGSNYFDYWGQGTLVTVSS
VL: EIVMTQSPATLSVSPGERATLSCRARQNFYSNLAWYQQKPGQAPRLLIYGASTRATGIPARFSGSGSGTEFTLTISSLQSEDFAVYYCQQYNNWPLTFGGGTKVEIK
Regarding B6, the OD450 in test [7] was found to be 0.1; in test [8], 3.19; in [10], 0.13; in test [11], 0.3. Besides, the Mean fluorescence intensity in test [9] amounted to 326.

B7: 39E5H1 (TIM-3 antibody purified from hybridoma, chimeric antibody of Example 2) (antibody, V domains shown)
VH: EVQLVESGGGLVQPGGSLRLSCAASGFTFSSYWMSWVRQAPGKGLEWVANIKRGGSERYYVDSVKGRFTISGDNAKNSVYLQMNSLRAEDTAVYYCARGSNWFDPWGQGTLVTVSS
VL: ETVMTQSPAILSVSPGERATLSCRASQSVYSNLAWYQQKLGQAPRLLIYDASTRATGIPARFSGSGSGTEFTLTISSLQSEDFAVYYCQQYNNWPITFGQGTRLEIK
notes: as for B1
In the case of B7, the OD450 came out at 0.61 in test [1]; 0.85 in test [2]; 3.39 in test [3]; 1.98 in [4]; 3.47 in test [5]; 0.9 in [6].

B8: 7A4F10 (TIM-3 antibody purified from hybridoma, chimeric antibody of Example 2) (antibody, V domains shown)
VH: EVQLLESGGGLVQPGGSLRLSCAASGFTFRTHLISWVRQAPGKGLEWVAAITGSGGSTYYADSVKGRFIISRDNSKNTLFLQMNSLRAEDTAVYYCAKDGGSGSYDDFWGQGTLVTVSS
VL: ETVLTQSPVTLSLSPGERATLSCRASQSVGSYLAWYQQKPGQAPRLLIYDASNRATGIPARFSGSGSGTDFTLTISSLEPEDFAVYYCQQRSNWPPTFGQGTKVEIK
notes: as for B1
As to B8, the OD450 in test [1] worked out at 0.55; in test [2], 0.57; in test [3] it was 3.08; in test [4], 0.7; in [5] it was 3.46; in test [6], 0.66.

B9: 215A8F2 (TIM-3 antibody purified from hybridoma, chimeric antibody of Example 2) (antibody, V domains shown)
VH: QVQLQQWGAGLLKPSETLSLTCTVYGGSFSGYYWNWIRQPPGKGLEWLGEINHSGSTNYNPSLKRRVTISVDTSKNQFSLKLSSVTAADTAVYYCARVYYYGPFDFWGQGTLVTVSS
VL: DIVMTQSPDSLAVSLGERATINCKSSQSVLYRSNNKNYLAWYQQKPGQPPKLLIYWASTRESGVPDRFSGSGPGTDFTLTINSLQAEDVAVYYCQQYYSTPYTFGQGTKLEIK
notes: as for B1
In the case of B9, the OD450 is 0.55 in test [1]; 0.7 in [2]; 3.17 in [3]; 1.5 in test [4]; 3.49 in test [5]; 0.77 in test [6].

Source of the values: patent US20220033501A1 (SHANGHAI PHARMAEXPLORER, published 2022).
